Measured values from EP3196312B1, “EFFICIENT CONVERSION OF METHYLGLYOXAL INTO HYDROXYACETONE USING NOVEL ENZYMES AND APPLI CATIONS THEREOF” (Metabolic Explorer, priority 2016, dated 2017).

How the values were obtained:
Test in all cases: Methylglyoxal reductase kinetic parameters of purified enzyme (NAD(P)H consumption at 340 nm)
[1] = substrate: CC(=O)C=O; format: biochemical, Bacillus subtilis; conditions: other: substrate methylglyoxal 0.1-40 mM, cofactor NADPH, 20mM Hepes (pH7.5) 0.1mM ZnSO4, 30°C, pH 7.5
Protocol: (§1) Except for the strain 18, the proteins were purified from the crude cell-extract by affinity on a Profinity column (BIORAD, Bio-Scale Mini Profinity exact cartridge 5 ml) according to the protocol recommended by the manufacturer. The crude extract was loaded on a 5 ml Profinity exact cartridge equilibrated with 100 mM potassium phosphate pH 7.6. The column was washed with 10 column volumes of the same buffer and incubated 30min with 100 mM potassium phosphate pH 7.6, 100 mM fluoride at room temperature. The protein was eluted from the column with 2 column volumes of 100 mM potassium phosphate pH 7.6. The tag remained tightly bound to the resin and the purified protein was released. The fractions containing the protein were pooled, concentrated and loaded on a gel filtration column (Superdex 200 10/300 GL column, GE Healthcare) equilibrated with different storage buffers (Table 3). Protein concentration was measured using the Bradford protein assay.
(§2) Methylglyoxal reductase activity (MGR) was determined by measuring the consumption of NAD(P)H at 340 nm on a spectrophotometer at 30°C (λ340 = 6290 M^-1 cm^-1). The reaction mixture (1mL) containing assay buffer and purified enzyme was incubated for 5 min at 30°C. Then, 0.1-40 mM methylglyoxal was added to start the reaction. […] Kinetic parameters were determined with Sigmaplot.

[2] = substrate: CC(=O)C=O; format: biochemical, Escherichia coli; conditions: other: substrate methylglyoxal 0.1-40 mM, pH 7.5
Protocol: as §1
Methylglyoxal reductase activity (MGR) was determined by measuring the consumption of NAD(P)H at 340 nm on a spectrophotometer at 30°C (λ340 = 6290 M^-1 cm^-1). The reaction mixture (1mL) containing assay buffer and purified enzyme was incubated for 5 min at 30°C. Then, 0.1-40 mM methylglyoxal was added to start the reaction. One unit of enzyme activity was defined as the amount of enzyme catalyzing the decrease of 1µmol of NAD(P)H per min. Kinetic parameters were determined with Sigmaplot.

[3] = substrate: CC(=O)C=O; format: biochemical, Klebsiella pneumoniae; conditions: other: substrate methylglyoxal 0.1-40 mM, cofactor NADH, 50 mM Imidazole (pH7), 30°C, pH 7.0
Protocol: as §1, §2

[4] = substrate: CC(=O)C=O; format: biochemical, Dickeya zeae; conditions: other: substrate methylglyoxal 0.1-40 mM, cofactor NADPH, 20mM Hepes (pH7.5), 30°C, pH 7.5
Protocol: as §1, §2

[5] = substrate: CC(=O)C=O; format: biochemical, Gluconobacter oxydans; conditions: other: substrate methylglyoxal 0.1-40 mM, cofactor NADPH, 20mM Hepes (pH7.5), 30°C, pH 7.5
Protocol: as §1, §2

[6] = substrate: CC(=O)C=O; format: biochemical, Hypocrea jecorina; conditions: other: substrate methylglyoxal 0.1-40 mM, cofactor NADPH, 10mM sodium phosphate (pH 7), 30°C
Protocol: as §1, §2

[7] = cofactor NADPH, 20mM Hepes (pH7.5), 30°C
[8] = cofactor NADH, 20mM Hepes (pH7.5) 0.1mM FeSO4, 30°C

B1: Bacillus subtilis YhdN (general stress protein 69, Uniprot P80874), SEQ ID NO: 3 (Bacillus subtilis subsp. subtilis str. 168) (protein)
chain: MEYTSIADTGIEASRIGLGTWAIGGTMWGGTDEKTSIETIRAALDQGITLIDTAPAYGFGQSEEIVGKAIKEYGKRDQVILATKTALDWKNNQLFRHANRARIVEEVENSLKRLQTDYIDLYQVHWPDPLVPIEETAEVMKELYDAGKIRAIGVSNFSIEQMDTFRAVAPLHTIQPPYNLFEREMEESVLPYAKDNKITTLLYGSLCRGLLTGKMTEEYTFEGDDLRNHDPKFQKPRFKEYLSAVNQLDKLAKTRYGKSVIHLAVRWILDQPGADIALWGARKPGQLEALSEITGWTLNSEDQKDINTILENTISDPVGPEFMAPPTREEI
Km [1]: 0.64 mM | kcat/Km [1]: 5.92 mM⁻¹ s⁻¹

B2: Escherichia coli YdhF (Oxidoreductase YdhF, Uniprot P76187), SEQ ID NO: 105 (Escherichia coli K-12) (protein)
chain: MVQRITIAPQGPEFSRFVMGYWRLMDWNMSARQLVSFIEEHLDLGVTTVDHADIYGGYQCEAAFGEALKLAPHLRERMEIVSKCGIATTAREENVIGHYITDRDHIIKSAEQSLINLATDHLDLLLIHRPDPLMDADEVADAFKHLHQSGKVRHFGVSNFTPAQFALLQSRLPFTLATNQVEISPVHQPLLLDGTLDQLQQLRVRPMAWSCLGGGRLFNDDYFQPLRDELAVVAEELNAGSIEQVVYAWVLRLPSQPLPIIGSGKIERVRAAVEAETLKMTRQQWFRIRKAALGYDVP
Km [2, 7]: 21.8 mM | kcat/Km [2, 7]: 0.35 mM⁻¹ s⁻¹

B3: Klebsiella pneumoniae BudC (Diacetyl reductase [(S)-acetoin forming], Uniprot Q48436), SEQ ID NO: 113 (Klebsiella pneumoniae) (protein)
chain: MKKVALVTGAGQGIGKAIALRLVKDGFAVAIADYNDATAKAVASEINQAGGRAMAVKVDVSDRDQVFAAVEQARKTLGGFDVIVNNAGVAPSTPIESITPEIVDKVYNINVKGVIWGIQAAVEAFKKEGHGGKIINACSQAGHVGNPELAVYSSSKFAVRGLTQTAARDLAPLGITVNGYCPGIVKTPMWAEIDRQVSEAAGKPLGYGTAEFAKRITLGRLSEPEDVAACVSYLASPDSDYMTGQSLLIDGGMVFN
Km [3]: 74.8 mM | kcat/Km [3]: 4.2 mM⁻¹ s⁻¹

B4: Escherichia coli YeaE (Uncharacterized protein YeaE, Uniprot P76234), SEQ ID NO: 107 (Escherichia coli K-12) (protein)
chain: MQQKMIQFSGDVSLPAVGQGTWYMGEDASQRKTEVAALRAGIELGLTLIDTAEMYADGGAEKVVGEALTGLREKVFLVSKVYPWNAGGQKAINACEASLRRLNTDYLDLYLLHWSGSFAFEETVAAMEKLIAQGKIRRWGVSNLDYADMQELWQLPGGNQCATNQVLYHLGSRGIEYDLLPWCQQQQMPVMAYSPLAQAGRLRNGLLKNAVVNEIAHAHNISAAQVLLAWVISHQGVMAIPKAATIAHVQQNAAVLEVELSSAELAMLDKAYPAPKGKTALDMV
Km [2, 7]: 1.59 mM | kcat/Km [2, 7]: 0.91 mM⁻¹ s⁻¹

B5: Escherichia coli YiaY (Probable alcohol dehydrogenase, Uniprot P37686), SEQ ID NO: 111 (Escherichia coli K-12) (protein)
chain: MAASTFFIPSVNVIGADSLTDAMNMMADYGFTRTLIVTDNMLTKLGMAGDVQKALEERNIFSVIYDGTQPNPTTENVAAGLKLLKENNCDSVISLGGGSPHDCAKGIALVAANGGDIRDYEGVDRSAKPQLPMIAINTTAGTASEMTRFCIITDEARHIKMAIVDKHVTPLLSVNDSSLMIGMPKSLTAATGMDALTHAIEAYVSIAATPITDACALKAVTMIAENLPLAVEDGSNAKAREAMAYAQFLAGMAFNNASLGYVHAMAHQLGGFYNLPHGVCNAVLLPHVQVFNSKVAAARLRDCAAAMGVNVTGKNDAEGAEACINAIRELAKKVDIPAGLRDLNVKEEDFAVLATNALKDACGFTNPIQATHEEIVAIYRAAM
Km [2, 8]: 2.84 mM | kcat/Km [2, 8]: 0.34 mM⁻¹ s⁻¹

B6: Escherichia coli YqhD (alcohol dehydrogenase, Uniprot Q46856), wild type, SEQ ID NO: 7 (Escherichia coli K-12) (protein)
chain: MNNFNLHTPTRILFGKGAIAGLREQIPHDARVLITYGGGSVKKTGVLDQVLDALKGMDVLEFGGIEPNPAYETLMNAVKLVREQKVTFLLAVGGGSVLDGTKFIAAAANYPENIDPWHILQTGGKEIKSAIPMGCVLTLPATGSESNAGAVISRKTTGDKQAFHSAHVQPVFAVLDPVYTYTLPPRQVANGVVDAFVHTVEQYVTKPVDAKIQDRFAEGILLTLIEDGPKALKEPENYDVRANVMWAATQALNGLIGAGVPQDWATHMLGHELTAMHGLDHAQTLAIVLPALWNEKRDTKRAKLLQYAERVWNITEGSDDERIDAAIAATRNFFEQLGVPTHLSDYGLDGSSIPALLKKLEEHGMTQLGENHDITLDVSRRIYEAAR
Km ([2]; cofactor NADPH, 20mM Hepes (pH7.5) 0.1mM ZnSO4, 30°C): 2.09 mM

B7: Escherichia coli YahK (aldehyde reductase, Uniprot P75691), SEQ ID NO: 1 (Escherichia coli K-12) (protein)
chain: MKIKAVGAYSAKQPLEPMDITRREPGPNDVKIEIAYCGVCHSDLHQVRSEWAGTVYPCVPGHEIVGRVVAVGDQVEKYAPGDLVGVGCIVDSCKHCEECEDGLENYCDHMTGTYNSPTPDEPGHTLGGYSQQIVVHERYVLRIRHPQEQLAAVAPLLCAGITTYSPLRHWQAGPGKKVGVVGIGGLGHMGIKLAHAMGAHVVAFTTSEAKREAAKALGADEVVNSRNADEMAAHLKSFDFILNTVAAPHNLDDFTTLLKRDGTMTLVGAPATPHKSPEVFNLIMKRRAIAGSMIGGIPETQEMLDFCAEHGIVADIEMIRADQINEAYERMLRGDVKYRFVIDNRTLTD
Km [2, 7]: 1.41 mM | kcat/Km [2, 7]: 8.3 mM⁻¹ s⁻¹

B8: Escherichia coli YafB (2,5-diketo-D-gluconic acid reductase B, Uniprot P30863), SEQ ID NO: 99 (Escherichia coli K-12) (protein)
chain: MAIPAFGLGTFRLKDDVVISSVITALELGYRAIDTAQIYDNEAAVGQAIAESGVPRHELYITTKIWIENLSKDKLIPSLKESLQKLRTDYVDLTLIHWPSPNDEVSVEEFMQALLEAKKQGLTREIGISNFTIPLMEKAIAAVGAENIATNQIELSPYLQNRKVVAWAKQHGIHITSYMTLAYGKALKDEVIARIAAKHNATPAQVILAWAMGEGYSVIPSSTKRKNLESNLKAQNLQLDAEDKKAIAALDCNDRLVSPEGLAPEWD
Km [2, 7]: 8.20 mM | kcat/Km [2, 7]: 2.06 mM⁻¹ s⁻¹

B9: Dickeya zeae Adh3.2 (Group III alcohol dehydrogenase, Uniprot R4Z7U3), SEQ ID NO: 103 (Dickeya zeae) (protein)
chain: MQNFTLHTPTKILFGEGQIAALADQIPADARILITYGGGSIKKNGVFDQVINALKGRNVVEFSGIEPNPTYETLMKAVEIVRKENIDFLLAVGGGSVADGTKFIAAAVNYKAAEDPWHILQTWGAHVESAIPLGVVLTLPATGSESNSGAVITRKSTGDKQAFMNPLVCPRFAVLDPVVTYTLPERQIANGVVDAFVHTVEQYLTYPVDAKVQDRFAEGLLLTLIEEGPRALKEQHNYNVRANVMWSATMALNGLIGAGVPQDWSTHMLGHEITAMHGLDHAQTLAIVLPAMLNERRVQKREKLLQYAERVWNLRDGSDDQRIDGAIAATRAFFEQMGVPTRLSDYQLDGSSIPALVAKLEEHGMTALGENKDITLDISKRVYEAAR
Km [4]: 6.7 mM | kcat/Km [4]: 0.17 mM⁻¹ s⁻¹

B10: Gluconobacter oxydans Gld (putative oxidoreductase, Uniprot Q5FQJ0), SEQ ID NO: 5 (Gluconobacter oxydans 621H) (protein)
chain: MASDTIRIPGIDTPLSRVALGTWAIGGWMWGGPDDDNGVRTIHAALDEGINLIDTAPVYGFGHSEEIVGRALAEKPNKAHVATKLGLHWVGEDEKNMKVFRDSRPARIRKEVEDSLRRLRVETIDLEQIHWPDDKTPIDESARELQKLHQDGKIRALGVSNFSPEQMDIFREVAPLATIQPPLNLFERTIEKDILPYAEKHNAVVLAYGALCRGLLTGKMNRDTTFPKDDLRSNDPKFQKPNFEKYLAAMDEFEKLAEKRGKSVMAFAVRWVLDQGPVIALWGARKPGQVSGVKDVFGWSLTDEEKKAVDDILARHVPNPIDPTFMAPPARD
Km [5]: 1.10 mM | kcat/Km [5]: 8.74 mM⁻¹ s⁻¹

B11: Hypocrea jecorina Gld2 (Glycerol 2-dehydrogenase (NADP(+)), Uniprot Q0GYU4), SEQ ID NO: 109 (Trichoderma reesei) (protein)
chain: MASKTYTLNTGAKIPAVGFGTFANEGAKGETYAAVTKALDVGYRHLDCAWFYHNEDEVGDAVRDFLARRPDVKREDLFICTKVWNHLHEPEDVKWSAKNSCENLKVDYIDLFLVHWPIAAEKNSDRSVKLGPDGKYVINQALTENPEPTWRAMEELVESGLVKAIGVSNWTIPGLKKLLQIAKIKPAVNQIEIHPFLPNEELVAFCFENGILPEAYSPLGSQNQVPSTGERVRDNPTLKAVAERSGYSLAQILLAWGLKRGYVVLPKSSTPSRIESNFNIPELSDEDFEAIQQVAKGRHTRFVNMKDTFGYNVWPEEE
Km [6]: 7.7 mM | kcat/Km [6]: 11.1 mM⁻¹ s⁻¹
